Patent US20130177579A1 (BIOALLIANCE C V, published 2013)
One block for each substance: values may come before it.

Legend:
[1] = biological target: human transferrin receptor expressed by Jurkat cells (human) (UniProt P02786); experiment: FACS, Jurkat cells, 1 ug
[2] = biological target: human transferrin receptor expressed by normal human cells (RBC, PMN, lymphocytes, monocytes, platelets, HUVEC) (human) (UniProt P02786); experiment: FACS, monocytes, donor D102
[3] = biological target: human transferrin receptor expressed by nonhematopoietic cancer cells (human) (UniProt P02786); experiment: FACS, Kato III cells, 5 ug
Sequence of human transferrin receptor expressed by nonhematopoietic cancer cells (human) (P02786 whole entry G142S): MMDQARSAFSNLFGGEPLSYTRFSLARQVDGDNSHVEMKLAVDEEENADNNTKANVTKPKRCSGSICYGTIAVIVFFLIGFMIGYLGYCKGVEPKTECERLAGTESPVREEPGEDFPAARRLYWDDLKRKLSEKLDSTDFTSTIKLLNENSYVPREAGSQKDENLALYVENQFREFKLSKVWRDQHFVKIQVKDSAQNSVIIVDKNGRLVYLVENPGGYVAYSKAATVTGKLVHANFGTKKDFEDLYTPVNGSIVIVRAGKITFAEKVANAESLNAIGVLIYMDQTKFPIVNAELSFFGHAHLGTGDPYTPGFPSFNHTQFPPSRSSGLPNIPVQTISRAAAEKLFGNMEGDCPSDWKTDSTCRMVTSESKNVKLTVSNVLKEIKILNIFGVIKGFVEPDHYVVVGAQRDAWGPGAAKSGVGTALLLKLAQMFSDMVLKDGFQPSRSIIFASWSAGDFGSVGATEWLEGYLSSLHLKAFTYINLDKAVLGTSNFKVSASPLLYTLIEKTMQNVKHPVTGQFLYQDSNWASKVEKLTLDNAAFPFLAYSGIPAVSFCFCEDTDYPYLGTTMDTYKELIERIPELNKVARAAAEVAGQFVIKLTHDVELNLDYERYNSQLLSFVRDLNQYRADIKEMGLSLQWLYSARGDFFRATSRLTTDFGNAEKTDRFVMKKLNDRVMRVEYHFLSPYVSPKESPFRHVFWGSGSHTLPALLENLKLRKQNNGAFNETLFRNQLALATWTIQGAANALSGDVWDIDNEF

[4] = biological target: human transferrin receptor expressed by normal human cells (RBC, PMN, lymphocytes, monocytes, platelets, HUVEC) (human) (UniProt P02786); experiment: FACS, RBC, donor D014
[5] = biological target: human transferrin receptor expressed by nonhematopoietic cancer cells (human) (UniProt P02786); experiment: FACS, SK-OV-3 cells, 5 ug
[6] = biological target: human transferrin receptor expressed by nonhematopoietic cancer cells (human) (UniProt P02786); experiment: FACS, A549 cells, 5 ug
[7] = biological target: human transferrin receptor expressed by normal human cells (RBC, PMN, lymphocytes, monocytes, platelets, HUVEC) (human) (UniProt P02786); experiment: FACS, lymphocytes, donor D005
[8] = biological target: human transferrin receptor expressed by nonhematopoietic cancer cells (human) (UniProt P02786); experiment: FACS, MDA-MB-453 cells, 5 ug
[9] = biological target: human transferrin receptor expressed by nonhematopoietic cancer cells (human) (UniProt P02786); experiment: FACS, Panc02.03B cells, 5 ug
[10] = biological target: human transferrin receptor expressed by normal human cells (RBC, PMN, lymphocytes, monocytes, platelets, HUVEC) (human) (UniProt P02786); experiment: FACS, RBC, donor D102
[11] = biological target: human transferrin receptor expressed by normal human cells (RBC, PMN, lymphocytes, monocytes, platelets, HUVEC) (human) (UniProt P02786); experiment: FACS, lymphocytes, donor D016
[12] = biological target: human transferrin receptor expressed by normal human cells (RBC, PMN, lymphocytes, monocytes, platelets, HUVEC) (human) (UniProt P02786); experiment: FACS, PMN, donor D014
[13] = biological target: human transferrin receptor expressed by nonhematopoietic cancer cells (human) (UniProt P02786); experiment: FACS, SU.86.86 cells, 5 ug
[14] = biological target: human transferrin receptor expressed by nonhematopoietic cancer cells (human) (UniProt P02786); experiment: FACS, 22Rv1 cells, 5 ug
[15] = biological target: human transferrin receptor expressed by nonhematopoietic cancer cells (human) (UniProt P02786); experiment: FACS, KLE cells, 5 ug
[16] = biological target: human transferrin receptor expressed by nonhematopoietic cancer cells (human) (UniProt P02786); experiment: FACS, OMC-3 cells, 5 ug
[17] = biological target: human transferrin receptor expressed by normal human cells (RBC, PMN, lymphocytes, monocytes, platelets, HUVEC) (human) (UniProt P02786); experiment: FACS, platelets, donor D102
[18] = biological target: human transferrin receptor expressed by nonhematopoietic cancer cells (human) (UniProt P02786); experiment: FACS, Hep G2 cells, 5 ug
[19] = biological target: human transferrin receptor expressed by nonhematopoietic cancer cells (human) (UniProt P02786); experiment: FACS, Hep 3B2.1-7 cells, 5 ug
[20] = biological target: human transferrin receptor expressed by nonhematopoietic cancer cells (human) (UniProt P02786); experiment: FACS, DU145 cells, 5 ug
[21] = biological target: human transferrin receptor expressed by nonhematopoietic cancer cells (human) (UniProt P02786); experiment: FACS, NCI-N87 cells, 5 ug
[22] = biological target: human transferrin receptor expressed by nonhematopoietic cancer cells (human) (UniProt P02786); experiment: FACS, WiDr cells, 5 ug
[23] = biological target: human transferrin receptor expressed by normal human cells (RBC, PMN, lymphocytes, monocytes, platelets, HUVEC) (human) (UniProt P02786); experiment: FACS, platelets, donor D005
[24] = biological target: human transferrin receptor expressed by normal human cells (RBC, PMN, lymphocytes, monocytes, platelets, HUVEC) (human) (UniProt P02786); experiment: FACS, monocytes, donor D016
[25] = biological target: human transferrin receptor expressed by normal human cells (RBC, PMN, lymphocytes, monocytes, platelets, HUVEC) (human) (UniProt P02786); experiment: FACS, RBC, donor D005
[26] = biological target: human transferrin receptor expressed by normal human cells (RBC, PMN, lymphocytes, monocytes, platelets, HUVEC) (human) (UniProt P02786); experiment: FACS, HUVEC, 5 ug/ml
[27] = biological target: human transferrin receptor expressed by nonhematopoietic cancer cells (human) (UniProt P02786); experiment: FACS, DLD-1 cells, 5 ug
[28] = biological target: human transferrin receptor expressed by nonhematopoietic cancer cells (human) (UniProt P02786); experiment: FACS, SNU-16 cells, 5 ug
[29] = biological target: human transferrin receptor expressed by normal human cells (RBC, PMN, lymphocytes, monocytes, platelets, HUVEC) (human) (UniProt P02786); experiment: FACS, lymphocytes, donor D014
[30] = biological target: human transferrin receptor expressed by nonhematopoietic cancer cells (human) (UniProt P02786); experiment: FACS, PC3 cells, 5 ug
[31] = biological target: human transferrin receptor expressed by normal human cells (RBC, PMN, lymphocytes, monocytes, platelets, HUVEC) (human) (UniProt P02786); experiment: FACS, monocytes, donor D014
[32] = biological target: human transferrin receptor expressed by nonhematopoietic cancer cells (human) (UniProt P02786); experiment: FACS, H358 cells, 5 ug
[33] = biological target: human transferrin receptor expressed by normal human cells (RBC, PMN, lymphocytes, monocytes, platelets, HUVEC) (human) (UniProt P02786); experiment: FACS, RBC, donor D016
[34] = biological target: human transferrin receptor expressed by normal human cells (RBC, PMN, lymphocytes, monocytes, platelets, HUVEC) (human) (UniProt P02786); experiment: FACS, platelets, donor D014
[35] = biological target: human transferrin receptor expressed by nonhematopoietic cancer cells (human) (UniProt P02786); experiment: FACS, H520 cells, 5 ug
[36] = biological target: human transferrin receptor expressed by normal human cells (RBC, PMN, lymphocytes, monocytes, platelets, HUVEC) (human) (UniProt P02786); experiment: FACS, PMN, donor D016
[37] = biological target: human transferrin receptor expressed by normal human cells (RBC, PMN, lymphocytes, monocytes, platelets, HUVEC) (human) (UniProt P02786); experiment: FACS, PMN, donor D102
[38] = biological target: human transferrin receptor expressed by normal human cells (RBC, PMN, lymphocytes, monocytes, platelets, HUVEC) (human) (UniProt P02786); experiment: FACS, PMN, donor D005
[39] = biological target: human transferrin receptor expressed by normal human cells (RBC, PMN, lymphocytes, monocytes, platelets, HUVEC) (human) (UniProt P02786); experiment: FACS, platelets, donor D016
[40] = biological target: human transferrin receptor expressed by nonhematopoietic cancer cells (human) (UniProt P02786); experiment: FACS, HEC-1-A cells, 5 ug
[41] = biological target: human transferrin receptor expressed by nonhematopoietic cancer cells (human) (UniProt P02786); experiment: FACS, Panc-1 cells, 5 ug
[42] = biological target: human transferrin receptor expressed by nonhematopoietic cancer cells (human) (UniProt P02786); experiment: FACS, COLO205 cells, 5 ug
[43] = biological target: human transferrin receptor expressed by normal human cells (RBC, PMN, lymphocytes, monocytes, platelets, HUVEC) (human) (UniProt P02786); experiment: FACS, monocytes, donor D005
[44] = biological target: human transferrin receptor expressed by nonhematopoietic cancer cells (human) (UniProt P02786); experiment: FACS, H727 cells, 5 ug
[45] = biological target: human transferrin receptor expressed by normal human cells (RBC, PMN, lymphocytes, monocytes, platelets, HUVEC) (human) (UniProt P02786); experiment: FACS, lymphocytes, donor D102
[46] = biological target: human CD41a on platelets (human) (UniProt P08514); experiment: FACS, platelets, donor D016, positive control
Sequence of human CD41a on platelets (human) (P08514 32-1039): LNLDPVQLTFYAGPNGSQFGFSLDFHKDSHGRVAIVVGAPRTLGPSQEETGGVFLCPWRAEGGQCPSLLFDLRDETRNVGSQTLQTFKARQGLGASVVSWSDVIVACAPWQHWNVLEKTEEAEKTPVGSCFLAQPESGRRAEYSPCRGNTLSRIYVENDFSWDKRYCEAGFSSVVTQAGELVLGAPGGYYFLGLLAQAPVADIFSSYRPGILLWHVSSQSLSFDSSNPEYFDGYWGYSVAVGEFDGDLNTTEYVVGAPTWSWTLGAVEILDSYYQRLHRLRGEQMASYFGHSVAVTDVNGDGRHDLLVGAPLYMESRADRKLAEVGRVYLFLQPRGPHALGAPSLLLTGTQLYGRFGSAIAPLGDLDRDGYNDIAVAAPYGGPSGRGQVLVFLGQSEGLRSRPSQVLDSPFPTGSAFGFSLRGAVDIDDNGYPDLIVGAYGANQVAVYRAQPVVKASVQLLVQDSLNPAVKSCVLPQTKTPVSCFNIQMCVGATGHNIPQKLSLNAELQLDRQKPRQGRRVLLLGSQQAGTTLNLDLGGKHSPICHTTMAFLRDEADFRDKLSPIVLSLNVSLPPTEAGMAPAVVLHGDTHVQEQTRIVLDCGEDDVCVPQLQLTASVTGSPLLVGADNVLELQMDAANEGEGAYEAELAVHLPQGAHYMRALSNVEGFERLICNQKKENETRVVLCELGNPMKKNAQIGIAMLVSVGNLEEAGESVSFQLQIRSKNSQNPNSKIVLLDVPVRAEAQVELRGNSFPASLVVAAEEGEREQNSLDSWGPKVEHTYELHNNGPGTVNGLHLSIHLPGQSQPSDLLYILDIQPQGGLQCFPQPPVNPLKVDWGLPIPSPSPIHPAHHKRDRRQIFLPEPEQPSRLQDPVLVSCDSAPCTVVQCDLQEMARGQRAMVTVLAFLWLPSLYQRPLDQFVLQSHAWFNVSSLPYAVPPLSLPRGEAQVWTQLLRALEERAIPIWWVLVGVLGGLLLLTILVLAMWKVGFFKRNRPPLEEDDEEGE

[47] = biological target: human CD41a on platelets (human) (UniProt P08514); experiment: FACS, platelets, donor D005, positive control
[48] = biological target: human CD41a on platelets (human) (UniProt P08514); experiment: FACS, platelets, donor D014, positive control
[49] = biological target: human CD41a on platelets (human) (UniProt P08514); experiment: FACS, platelets, donor D102, positive control

Sequence of human transferrin receptor expressed by normal human cells (RBC, PMN, lymphocytes, monocytes, platelets, HUVEC) (human) (P02786 whole entry G142S): as the sequence (P02786 whole entry G142S) above
Sequence of human transferrin receptor expressed by Jurkat cells (human) (P02786 whole entry G142S): as above

% of gated cells [1]: 100%
Substance: anti-human transferrin receptor antibody MEM189 (Abcam Cat. No. ab1086)

% positive cell binding [2]: 2%
MFI [3]: 7 MFI
% positive cell binding [4]: < 1%
MFI [5]: 5 MFI
MFI [6]: 8 MFI
% positive cell binding [7]: 4%
MFI [8]: 4 MFI
MFI [9]: 5 MFI
% positive cell binding [10]: < 1%
% positive cell binding [11]: 1%
% positive cell binding [12]: < 1%
MFI [13]: 6 MFI
MFI [14]: 7 MFI
MFI [15]: 10 MFI
MFI [16]: 16 MFI
% positive cell binding [17]: < 1%
MFI [18]: 4 MFI
MFI [19]: 5 MFI
MFI [20]: 4 MFI
MFI [21]: 33 MFI
MFI [22]: 5 MFI
% positive cell binding [23]: < 1%
% positive cell binding [24]: 1%
% positive cell binding [25]: < 1%
% positive cell binding [26]: 1%
MFI [27]: 5 MFI
MFI [28]: 5 MFI
% positive cell binding [29]: 1%
MFI [30]: 3 MFI
% positive cell binding [31]: < 1%
MFI [32]: 4 MFI
% positive cell binding [33]: < 1%
% positive cell binding [34]: < 1%
MFI [35]: 5 MFI
% positive cell binding [36]: < 1%
% positive cell binding [37]: < 1%
% positive cell binding [38]: < 1%
% positive cell binding [39]: < 1%
MFI [40]: 13 MFI
MFI [41]: 6 MFI
MFI [42]: 3 MFI
% positive cell binding [43]: 3%
MFI [44]: 9 MFI
% positive cell binding [45]: 3%
Substance: isotype control mouse IgM, kappa (BD Pharmingen Cat. No. 557275) (antibody)

% positive cell binding [46]: 95%
% positive cell binding [47]: 79%
% positive cell binding [48]: 97%
% positive cell binding [49]: 78%
Substance: PE-conjugated anti-human CD41a (Southern Biotech Cat. No. 9391-09) (antibody)
